Experimental findings from article PMC4108505 (Journal of molecular biology, 2014) are described below.

Changes are numbered by the printed parent chain. Names and notes keep the numbering of the source.

Common to all, as to assay: fluorescence polarisation
In one assay the target is T1, SipD^t V323K (Salmonella, UniProt Q56026 101-343, V323K).
T1 sequence: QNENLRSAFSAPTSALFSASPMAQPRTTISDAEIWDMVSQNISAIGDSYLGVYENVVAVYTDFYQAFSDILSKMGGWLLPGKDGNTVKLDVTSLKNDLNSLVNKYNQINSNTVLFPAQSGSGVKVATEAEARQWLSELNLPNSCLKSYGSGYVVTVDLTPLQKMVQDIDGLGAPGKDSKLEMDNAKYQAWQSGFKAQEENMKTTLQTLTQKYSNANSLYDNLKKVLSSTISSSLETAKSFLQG

The target of assay [1] is T2, SipD^t (truncated form of SipD lacking the N-terminal alpha-helical hairpin, residues 101-343) (Salmonella, UniProt Q56026 101-343).
T2 sequence: T1 sequence with K223V

For the next assay, the target named is T3, SipD^t S313E (Salmonella, UniProt Q56026 101-343, S313E).
T3 sequence: T1 sequence with S213E, K223V

The next assay deals with T4, SipD^t D320R (Salmonella, UniProt Q56026 101-343, D320R).
T4 sequence: T1 sequence with D220R, K223V

The target in a further assay is T5, SipD^t S148E (Salmonella, UniProt Q56026 101-343, S148E).
T5 sequence: T1 sequence with S48E, K223V

For another assay, the target named is T6, SipD^t V157K (Salmonella, UniProt Q56026 101-343, V157K).
T6 sequence: T1 sequence with V57K, K223V

B1: PrgI V65A/V67A/L31C labelled with Alexa Fluor 488-C5-maleimide (natural protein)
chain: MATPWSGYLDDVSAKFDTGVDNLQTQVTEACDKLAAKPSDPALLAAYQSKLSEYNLYRNAQSNTAKAFKDIDAAIIQNFR
modifications: Alexa Fluor 488-C5-maleimide on the cysteine of L31C
In the case of B1, the binding result with SipD^t V323K, with SipD^t S313E, in the assay with SipD^t D320R and in the assay with SipD^t V157K was “binds” each time. Also, the dissociation constant (Kd) in assay [1] came to 108 ± 10 µM; in the assay with SipD^t S148E, 189 ± 20 µM.

For orientation: Kd means the concentration at which binding is half-saturated.
